In patent US10975365B2, “Di-enzymatic chimeric endolysin” (Government of the United States of America, as represented …, priority 2018, dated 2021):

B1: ClyX-4: the full-length PlySs2 with an additional C′ terminal Cpl-1 EAD (GH25); Seq. ID No. 22 (protein)
chain: MTTVNEALNNVRAQVGSGVSVGNGECYALASWYERMISPDATVGLGAGVGWVSGAIGDTISAKNIGSSYNWQANGWTVSTSGPFKAGQIVTLGATPGNPYGHVVIVEAVDGDRLTILEQNYGGKRYPVRNYYSAASYRQQVVHYITPPGTVAQSAPNLAGSRSYRETGTMTVTVDALNVRRAPNTSGEIVAVYKRGESFDYDTVIIDVNGYVWVSYIGGSGKRNYVATGATKDGKRFGNAWGTFKMVKKNDLFVDVSSHNGYDITGILEQMGTTNTIIKISESTTYLNPCLSAQVEQSNPIGFYHFARFGGDVAEAEREAQFFLDNVPMQVKYLVLDYEDDPSGDAQANTNACLRFMQMIADAGYKPIYYSYKPFTHDNVDYQQILAQFPNSLWIAGYGLNDGTANFEYFPSMDGIRWWQYSSNPFDKNIVLLDDEEDDKPKTAGTWKQDSKGWWFRRNNGSFPY
modifications: Bacteriophage
notes: the full-length PlySs2 with an additional C′ terminal Cpl-1 EAD (GH25); ID No. 22
B2: ClyX-1: chimeric endolysin, Seq. ID No. 17: Cpl-1 CBD fused between GyH and CHAP catalytic domains of PlyCA (protein)
chain: MSKKYTQQQYEKYLAQPANNTFGLSPQQVADWFMGQAGARPVINSYGVNASNLVSTYIPKMQEYGVSYTLFLMYTVFEGGGAGNWINHYMYDTGSNGLECLEHDLQYIHGVWETYFPPALSAPECYPATEDNAGALDRFYQSLPGRTWGDVMIPSTMAGNAWVWAYNYCVNNQGAAPLVYFGNPYDSQIDSLLAMGADPFTGGSIMEEDDKPKTAGTWKQDSKGWWFRRNNGSFPYNKWEKIGGVWYYFDSKGYCLTSEWLKDNEKWYYLKDNGAMATGWVLVGSEWYYMDDSGAMVTGWVKYKNNWYYMTNERGNMVSNEFIKSGKGWYFMNTNGELADNPSFTKEPDGLITVAGSDRVAANLANAQAQVGKYIGDGQCYAWVGWWSARVCGYSISYSTGDPMLPLIGDGMNAHSIHLGWDWSIANTGIVNYPVGTVGRKEDLRVGAIWCATAFSGAPFYTGQYGHTGIIESWSDTTVTVLEQNILGSPVIRSTYDLNTFLSTLTGLITFK
modifications: Bacteriophage
notes: ID No. 17: Cpl-1 CBD fused between GyH and CHAP catalytic domains of PlyCA

What was measured:
[1] = tested on: other streptococci strains; assay: MIC test on other streptococci strains; type: cell-based
Procedure: The MICs of enzymes and antibiotics were determined in a 96-well titration plate in triplicate. Briefly, the overnight pneumococcal culture was diluted with 2×THY to obtain a final concentration of 1×10^7 CFU/ml, and other bacterial species were diluted with 2-folded medium to 1×10^5 CFU/ml. 100 μl of the diluted bacterial culture was subjected into each well, mixing with the serial 2-fold diluted 100 μl of enzymes/antibiotics. PBS buffer was used as a negative control. The plates were sealed via parafilm and statically incubated at 37° C. incubator for 24 h. The MIC was defined as the lowest concentration of treatment that inhibited visible growth of the bacterium.
With regard to applying the design rationale to add a C′ terminal EAD such that two EADs are disposed at each side of the CBD, the process was used to engineer endolysins for increased activity. We created the ClyX-3, the full-length Cpl-1 with an additional C′ terminal PlyC CHAP, and ClyX-4, the full-length PlySs2 with an additional C′ terminal Cpl-1 EAD (GH25) (FIG. 4 and FIG. 6). These constructs were expressed and purified as soluble proteins.

[2] = tested on: GAS, GBS, GCS, S. uberis, S. suis and S. mutants; assay: Bactericidal activity of ClyX-4 on streptococci; type: cell-based; settings: 50 μg/ml; 1 h
Procedure: (a) Bactericidal effects of ClyX-3 against five strains of stationary phase S. pneumoniae. 5 μg/ml of enzymes were mixed with 10^6 bacterial cultures for 5 min. Log killing was determined through the comparisons of PBS treatment and enzymes treatment. (b) Bactericidal effects of ClyX-4 against stationary phase streptococci. 50 μg/ml of enzymes were mixed with 10^6 bacterial culture for 1 h. Log killing was determined through the comparisons of PBS treatment and enzymes treatment;
(§1) With regard to bactericidal assay, bacterial cells were diluted to 2× rich media to generate a final concentration of 5.0×10^6 CFU/ml. 100 μl of the diluted bacterial culture was added into a 96-well titration plate in triplicate and mixed with 100 μl of sterile-filtered enzymes. Plates were sealed and incubated at 37° C. for 5-60 min. After the incubation, bacterial cells were serially diluted in 10-fold increments into sterile PBS and plated on THY/TSB agar. Log killing was calculated as follows: −log[(CFU under enzyme treatment)/(CFU under PBS treatment)].
With regard to applying the design rationale to add a C′ terminal EAD such that two EADs are disposed at each side of the CBD, the process was used to engineer endolysins for increased activity. […]

S. pneumoniae strains = assay: Antimicrobial spectrum of ClyX-1 by turbidity reduction assay, pneumococci; type: cell-based, Streptococcus pneumoniae; settings: 14 most frequent serotypes, Lyt 4.4, R36A and R6; 5 μg/ml, 10 min
Procedure: (§2) (b) Bactericidal effects of ClyX-1 against stationary phase S. pneumoniae R6. Different concentrations of ClyX-1 were mixed with 10^6 overnight bacterial culture for 5 min. Log killing was determined through the comparisons of PBS treatment and ClyX-1 treatment. (c)-(d) Biochemical characterization of ClyX-1. The effects of temperature stability (c) and pH (d) were evaluated. […] of ClyX-1 was assayed for lytic activity via turbidity reduction assay against stationary phase S. pneumoniae TIGR 4 cells for 10 min. Values were presented as percentage of lytic activity in a relation to activity observed for pH 7 and 37° C. (e) The host range of ClyX-1. Multiple strains of streptococci were tested for susceptibility. The bacterial cells were washed twice and resuspended in PBS to a final OD600 of 0.9-1.0. The changes of OD600 were presented after treating with […] of ClyX-1 for 10 min;
(§3) In a bacteriolytic assay, bacterial culture (stationary phase) was harvested at 5,000 for 10 min at 4° C., washed twice and resuspended in PBS buffer, pH7.4. In a 96-well titration plate, the resuspended bacterial solution was mixed 1:1 (u/u) with endolysin to a final OD600 between 0.8 to 1.0. […] Spectrophotometric readings (OD600) were taken every 15 s over 10 min on a spectrophotometer. Vmax was calculated as the slope of the linear portion and represented the endolysins activity. […]

other streptococci = assay: Antimicrobial spectrum of ClyX-1 by turbidity reduction assay, other streptococci; type: cell-based; settings: 5 μg/ml, 10 min
Procedure: as §2, §3

S. pneumoniae D39 = assay: Bactericidal assay on D39, ClyX-1 compared with Cpl-1 and PlyCA; type: cell-based, Streptococcus pneumoniae
Procedure: (§4) (a) Different concentrations of ClyX-1 and Cpl-1 were mixed with 10^6 overnight S. pneumoniae D39 culture for 5 min. The cells were then serial diluted and plated on the THY plates. Log killing was determined through the comparisons of PBS treatment and the enzymes treatment. (b) Female BALB/c mice were injected intraperitoneally with pneumococcus strain S. pneumoniae NS26 at a single dose at 2.95×10^7 colony forming units (CFU) per mouse. One hour after the infection, mice were intraperitoneally received a single dose of different treatments in different amount per mouse. The lines represent the percentage survival of mice for 10 days. The data was plotted as Kaplan-Meier survival curves and analyzed via the Log-rank (Mantel-Cox) test (*P<0.001; **P<0.0001);
as §1
Bactericidal assays were repeated using the three lysins at different concentrations (0.5 μg/ml to 50 μg/ml) on a different strain, D39 (FIG. 10a).

[3] = tested on: S. pneumoniae ATCC TIGR 4; assay: Bacteriolytic (turbidity reduction) assay; type: cell-based, Streptococcus pneumoniae; settings: 5 μg/ml; OD from 1.0 to 0.2 within the first 2 min; overnight culture
Procedure: (§5) In a bacteriolytic assay, bacterial culture (stationary phase) was harvested at 5,000 for 10 min at 4° C., washed twice and resuspended in PBS buffer, pH7.4. In a 96-well titration plate, the resuspended bacterial solution was mixed 1:1 (u/u) with endolysin to a final OD600 between 0.8 to 1.0. In each run, PBS was included as a negative control. Spectrophotometric readings (OD600) were taken every 15 s over 10 min on a spectrophotometer. Vmax was calculated as the slope of the linear portion and represented the endolysins activity. All experiments were conducted in triplicate to get the standard deviation.
(§6) Bacteriolytic capacity of ClyX-1 and ClyX-1 linkers were analyzed via the turbidity reduction assay against the overnight culture of S. pneumoniae ATCC TIGR 4. Both enzymes-induced lysis of the bacterial peptidoglycan caused a decrease in OD from 1.0 to 0.2 (80%) within the first 2 min of the turbidity assay at 5 μg/ml as shown in FIG. 9a. The linkers were the only difference between these two enzymes, and the unstructured region of PlyCA GyH, PlyCA CHAP, and Cpl-1 CBD provide optimal flexibility for enzymatical activity. High lytic activity correlated with data for bacterial survival after chimera treatment. ClyX-1 sterilized cultures for 5 min, causing a decrease in TIGR 4 viability of ˜6 log, at as low as 0.5 μg/ml (FIG. 9b). […]

S. pneumoniae NS26 = assay: Mouse systemic infection model, survival; type: in vivo, female BALB/c mice; settings: 10 days
Procedure: as §4
With regard to in vivo mouse infection models, mouse infection experiments were carried out in an ABSL-2 lab. In the mouse systemic infection model, female BALB/c mice (6-8 weeks old) were injected intraperitoneally with S. pneumoniae NS26 at a single dose of 2.95×10^7 CFU/mouse and divided randomly into multiple groups. Bacterial burden in blood and organs in mice 1 h post-infected were confirmed by plating on THY agar as described previously. One hour post-infection, these groups intraperitoneally received a single dose of 20, 40, or 80 μg/mouse of […] (n=10); 20, 40, or 80 μg/mouse of Cpl-1 (n=10); 100 μg/mouse of penicillin G (n=10); or an equal volume of PBS buffer (n=10). The survival data for all groups were recorded for 10 days.
To validate the in vitro bactericidal activity of ClyX-1, we applied a mouse systemic infection model to test the in vivo efficacy of the enzyme. Mice were challenged to a 2-days lethal-dose of 2.95×10^7 CFU. One hour after infection, the mice were intraperitoneally injected a single dose containing different amount of either ClyX-1 or Cpl-1 ranging from 20 μg-80 μg. The antibiotics control was 100 μg/mouse of penicillin G, and the negative control was as PBS, pH7.4 buffer. The mice were then observed and recorded for the survival data. All the mice treated with PBS buffer died within the first 2 days.

TIGR 4 = assay: Bactericidal assay (log killing), 5 min; type: cell-based, Streptococcus pneumoniae; settings: 0.5 μg/ml
Procedure: as §1
as §6, with “9b). Stability of ClyX-1 at different temperature and pH was surveyed to determine optimal conditions.” for “9b).”

[4] = tested on: stationary phase S. pneumoniae TIGR 4; assay: Temperature stability and pH optimum of ClyX-1 by turbidity reduction assay; type: cell-based, Streptococcus pneumoniae
Procedure: as §5
The optimal biochemical conditions for ClyX-1 against stationary phase S. pneumoniae TIGR 4 were determined using the turbidity reduction assay described above. For temperature stability, ClyX-1 was incubated at indicated temperatures (4° C., 16° C., 25° C., 37° C., 45° C., 55° C., or 65° C.)/tsb for 30 min, recovered on ice for 5 min, and subjected to the spectrophotometric analysis. For optimal pH condition, pneumococci TIGR 4 were suspended in 40 mM boric acid/phosphoric acid (BP) buffer, pH 3-10, and were challenged against ClyX-1.

[5] = incubated 30 min at indicated temperature before assay

| Molecule | activity by MIC compared with parental endolysin and ClyX-2 [1] | bactericidal activity compared with PlySs2 [2] | susceptibility of all tested pneumococcal strains (S. pneumoniae strains) | lysis of other streptococci (other streptococci) | fold increase in activity in vitro against S. pneumoniae compared to the parental enzyme (S. pneumoniae D39; versus parental Cpl-1) [fold] | concentration at which the bacteria culture was sterilized (S. pneumoniae D39; within 5 min, tested 0.5 to 50 μg/ml) [µg/mL] | decrease in OD in turbidity assay [3] [%] | mice rescued (survival) (S. pneumoniae NS26; 20 μg single i.p. dose 1 h after infection) [%] | mice rescued (survival) (S. pneumoniae NS26; 40 μg single i.p. dose 1 h after infection) [%] | mice rescued (survival) (S. pneumoniae NS26; 80 μg single i.p. dose 1 h after infection) [%] | decrease in viability (TIGR 4) [log] | optimal pH condition ([4]; BP buffer pH 3-10) | pH above which activity is lost (protein precipitation) ([4]; BP buffer pH 3-10) | pH below which activity is lost (protein precipitation) ([4]; BP buffer pH 3-10) | temperature above which the activity rapidly dropped [4, 5] | temperature below which the enzyme was stable with highest activity [4, 5] |
| --- | --- | --- | --- | --- | --- | --- | --- | --- | --- | --- | --- | --- | --- | --- | --- | --- |
| B1 | better than parental endolysins | more active than PlySs2 |  |  |  |  |  |  |  |  |  |  |  |  |  |  |
| B2 |  |  | susceptible | lysis of no other streptococci tested | ~100 | ≤ 0.5 | 80 | 30 | 40 | 80 | ~6 | 6.5 | above 8 | below 4 | above 45 °C | below 37 °C |
